Experimental data as given in US20240336656A1 (Bicycle, published 2024).
Starred links: 1 amine or outer side, 2 acyl side, 3 side chain; linkers in the order of their positions; H or OH if unused. Positions of bridges follow the written chain, without caps; N, C: chain ends. Non-standard residues stand in square brackets, D forms with d. Chains are numbered I, II in the order given. No end group written: not given here. PYA = 4-pentynoic acid on Lys NZ, clicked (triazole) to linker azide; TATA = O=C(CC[*:1])N1CN(C(=O)CC[*:2])CN(C(=O)CC[*:3])C1; 1Nal = N[C@@H](Cc1cccc2ccccc12)C(=O)O; Hyp = O=C(O)[C@@H]1C[C@@H](O)CN1; hArg = N=C(N)NCCCC[C@H](N)C(=O)O; tBuAla = CC(C)(C)C[C@H](N)C(=O)O; Nle = CCCC[C@H](N)C(=O)O

Tests used:
CD137 (TNFRSF9) on cells [1] = molecular target: T1, CD137 (TNFRSF9) on cells (human, UniProt Q07011 24-255); assay: cell-based or functional assay
T1 sequence (Q07011 24-255): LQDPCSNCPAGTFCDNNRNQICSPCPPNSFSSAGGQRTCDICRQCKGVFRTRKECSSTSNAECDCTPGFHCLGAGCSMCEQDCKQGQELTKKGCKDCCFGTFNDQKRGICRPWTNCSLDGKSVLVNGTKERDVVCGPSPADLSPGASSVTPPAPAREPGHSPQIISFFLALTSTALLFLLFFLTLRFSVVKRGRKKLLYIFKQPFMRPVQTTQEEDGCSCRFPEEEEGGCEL

CD137 (TNFRSF9) on cells [2] = molecular target: T1, CD137 (TNFRSF9) on cells; assay: cell-based or functional assay; remark: listed apart in the source

EC50 (nM) of fold induction over background, CD137 reporter assay, coculture with CT26#7 (mouse) (CD137 (TNFRSF9) on cells [1]): 0.14 nM
EC50 (nM) of fold induction over background, CD137 reporter assay, coculture with HT1376 (human) (CD137 (TNFRSF9) on cells [1]): 0.52 nM
EC50 (nM) of fold induction over background, CD137 reporter assay, coculture with MC38#13 (mouse) (CD137 (TNFRSF9) on cells [1]): 0.31 nM
EC50 (nM) of fold induction over background, CD137 reporter assay, coculture with MDA-MB-468 (human) (CD137 (TNFRSF9) on cells [1]): 0.23 nM
EC50 (nM) of fold induction over background, CD137 reporter assay, coculture with NCI-H292 (human) (CD137 (TNFRSF9) on cells [1]): 0.28 nM
EC50 (nM) of fold induction over background, CD137 reporter assay, coculture with NCI-H322 (human) (CD137 (TNFRSF9) on cells [1]): 0.33 nM
EC50 (nM) of fold induction over background, CD137 reporter assay, coculture with T47D (human) (CD137 (TNFRSF9) on cells [1]): 0.42 nM
EC50 of IFNγ secretion, human PBMC co-culture with 4T1-D02 (mouse) (CD137 (TNFRSF9) on cells [2]): 0.04 nM
EC50 of IFNγ secretion, human PBMC co-culture with H322 (human) (CD137 (TNFRSF9) on cells [2]): 0.85 nM
EC50 of IFNγ secretion, human PBMC co-culture with MC38 # 13 (mouse) (CD137 (TNFRSF9) on cells [2]): 0.17 nM
EC50 of IFNγ secretion, human PBMC co-culture with T-47D (human) (CD137 (TNFRSF9) on cells [2]): 0.08 nM
EC50 of IL-2 secretion, human PBMC co-culture with 4T1-D02 (mouse) (CD137 (TNFRSF9) on cells [2]): 0.16 nM
EC50 of IL-2 secretion, human PBMC co-culture with H322 (human) (CD137 (TNFRSF9) on cells [2]): 0.84 nM
EC50 of IL-2 secretion, human PBMC co-culture with HT1376 (human) (CD137 (TNFRSF9) on cells [2]): 0.39 nM
EC50 of IL-2 secretion, human PBMC co-culture with MC38 # 13 (mouse) (CD137 (TNFRSF9) on cells [2]): 0.25 nM
EC50 of IL-2 secretion, human PBMC co-culture with T-47D (human) (CD137 (TNFRSF9) on cells [2]): 0.2 nM
B1: BCY11863 (peptide)
peptide 1: {N‑(acid-PEG3)‑N‑bis(PEG3-azide)}-CP[1Nal][dD]CM[hArg]DWSTP[Hyp]WC
peptide 2: Ac-C[tBuAla]PE[dK](PYA)PYCFADPY[Nle]CA
modifications: linker I:1-I:5-I:15, II:1-II:8-II:15 via TATA; also: heterotandem: one BCY8116 (chain 1) joined through N-(acid-PEG3)-N-bis(PEG3-azide) linker to two BCY8928 (chain 2), triazole via D-Lys(PYA)
